Data on six molecules can be found in publication PMC12345223.

Data set [1] has as its target T1, ChCpc1 (Cochliobolus heterostrophus C4 (Tox1+, …, UniProt M2T2C6 1-465)).
T1 sequence: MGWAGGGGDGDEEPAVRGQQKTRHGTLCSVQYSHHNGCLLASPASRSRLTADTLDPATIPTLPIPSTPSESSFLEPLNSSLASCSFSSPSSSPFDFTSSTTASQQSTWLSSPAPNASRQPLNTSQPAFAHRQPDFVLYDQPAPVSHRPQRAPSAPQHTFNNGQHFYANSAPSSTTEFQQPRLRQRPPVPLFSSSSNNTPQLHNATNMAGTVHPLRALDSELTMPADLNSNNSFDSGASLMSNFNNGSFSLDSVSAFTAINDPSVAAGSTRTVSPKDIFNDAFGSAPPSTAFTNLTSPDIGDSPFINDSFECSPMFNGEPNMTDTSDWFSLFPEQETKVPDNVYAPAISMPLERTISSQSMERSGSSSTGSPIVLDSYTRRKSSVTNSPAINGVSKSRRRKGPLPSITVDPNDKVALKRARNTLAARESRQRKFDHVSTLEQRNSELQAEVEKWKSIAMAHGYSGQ
The experiment in a line: EMSA; strongest of the four ATG probes; Light Shift Chemiluminescent EMSA Kit (Beyotime), 20 min at 25°C; 6.5% polyacrylamide gel, 0.5x TBE; binding buffer, salt and pH not stated. To be noted: protein: recombinant; tags: His (pET-32a); chain copies: 2; label: biotin (on forward strand); blunt. Background: A gel shift assay detects complexes by their altered migration in electrophoresis.

For data set [2], the target named is T1, ChCpc1. As to the kind of experiment: EMSA; 100x unlabeled competitor prevents binding; Light Shift Chemiluminescent EMSA Kit (Beyotime), 20 min at 25°C; 6.5% polyacrylamide gel, 0.5x TBE; binding buffer, salt and pH not stated. The note with it: protein: recombinant, tags: His (pET-32a), chain copies: 2, label: biotin (on forward strand).
The target in data set [3] is T2, ChAtf1 (Cochliobolus heterostrophus C4 (Tox1+, …, UniProt M2TIN4 1-567)).
T2 sequence: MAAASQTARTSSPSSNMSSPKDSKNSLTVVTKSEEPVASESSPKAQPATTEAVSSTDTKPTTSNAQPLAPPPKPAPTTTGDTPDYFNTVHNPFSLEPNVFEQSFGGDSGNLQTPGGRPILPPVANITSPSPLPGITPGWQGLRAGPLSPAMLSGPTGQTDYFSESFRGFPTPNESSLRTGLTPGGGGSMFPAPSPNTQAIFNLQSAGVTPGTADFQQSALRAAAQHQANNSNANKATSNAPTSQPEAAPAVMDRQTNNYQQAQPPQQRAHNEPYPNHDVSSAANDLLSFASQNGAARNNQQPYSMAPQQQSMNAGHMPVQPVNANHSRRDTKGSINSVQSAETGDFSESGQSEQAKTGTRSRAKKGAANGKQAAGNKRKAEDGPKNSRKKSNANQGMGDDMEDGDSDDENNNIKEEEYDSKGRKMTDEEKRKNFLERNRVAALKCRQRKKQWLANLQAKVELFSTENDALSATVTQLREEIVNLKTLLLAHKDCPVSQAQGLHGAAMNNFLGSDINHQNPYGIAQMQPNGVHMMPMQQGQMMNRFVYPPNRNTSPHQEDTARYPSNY
The experiment in a line: EMSA; ChAtf1 alone; Light Shift Chemiluminescent EMSA Kit (Beyotime), 20 min at 25°C; 6.5% polyacrylamide gel, 0.5x TBE; binding buffer, salt and pH not stated. The note with it: protein: recombinant; tags: His (pET32a); chain copies: 2; label: biotin (on forward strand); blunt.

Data set [4] concerns the target T1, ChCpc1. As to the kind of experiment: EMSA; Light Shift Chemiluminescent EMSA Kit (Beyotime), 20 min at 25°C; 6.5% polyacrylamide gel, 0.5x TBE; binding buffer, salt and pH not stated. To be noted: protein: recombinant; tags: His (pET-32a); chain copies: 2; label: biotin (on forward strand); blunt.

B1: ChATG9 promoter probe (dsDNA)
DNA 1: GCGGCGCGTCACCTGCATGAGTCCCATGTCGATGAGGCGCT
DNA 2: AGCGCCTCATCGACATGGGACTCATGCAGGTGACGCGCCGC
Regarding B1, in data set [1], the binding result is “binds”.

B2: ChARG4 promoter probe (dsDNA)
DNA 1: CATTGGCGTTTGGGACTGAATTACAATGAGTAATGAAATAACTCACACCACAAAGCAGTA
DNA 2: TACTGCTTTGTGGTGTGAGTTATTTCATTACTCATTGTAATTCAGTCCCAAACGCCAATG
B2: the results for the binding result in data set [2] (blunt) and in data set [3] were “binds” and “no binding”, respectively.

B3: ChATG5 promoter probe (dsDNA)
DNA 1: CAGCTATGTTGCGTTAGTAAGTCACCCATCTACGCTGTCGC
DNA 2: GCGACAGCGTAGATGGGTGACTTACTAACGCAACATAGCTG
For B3, in data set [4], the binding result is “binds”.

B4: ChARG1 promoter probe (dsDNA)
DNA 1: AAGACAGTGGTGGAGATCAAGTTGGATGAGTAACTTGGCGCTGCACTCGATTCGCGTGTT
DNA 2: CCAACTTGATCTCCACCACTGTCTT
As for B4, the binding result in data set [2] (printed reverse oligo (25 nt) pairs only with nt 1-25 of the 60-nt forward strand, possibly printed incomplete) is “binds”.

B5: ChATG7 promoter probe (dsDNA)
DNA 1: TCCCAAATGTCGGTCGTGACCCATCGTTCCCTCCATCTCA
DNA 2: TGAGATGGAGGGAACGATGGGTCACGACCGACATTTGGGA
Consider B5, for which, in data set [4], the binding result is “binds”.

B6: ChATG8 promoter probe (dsDNA)
DNA 1: GGAGAGCGTGAAGGAGAGAGACGGGATGAGTCAAAGTACCCAGGTAGCCAGGTCATGGGA
DNA 2: TCCCATGACCTGGCTACCTGGGTACTTTGACTCATCCCGTCTCTCTCCTTCACGCTCTCC
Turning to B6, the binding result in data set [4] is listed as “binds”; in data set [3], “no binding”.
